In IntAct's records for PubMed 30126976:

B1: 5-hydroxytryptamine receptor 2C (Homo sapiens), P28335 (parent)
chain: MVNLRNAVHSFLVHLIGLLVWQSDISVSPVAAIVTDIFNTSDGGRFKFPDGVQNWPALSIVIIIIMTIGGNILVIMAVSMEKKLHNATNYFLMSLAIADMLVGLLVMPLSLLAILYDYVWPLPRYLCPVWISLDVLFSTASIMHLCAISLDRYVAIRNPIEHSRFNSRTKAIMKIAIVWAISIGVSVPIPVIGLRDEEKVFVNNTTCVLNDPNFVLIGSFVAFFIPLTIMVITYCLTIYVLRRQALMLLHGHTEEPPGLSLDFLKCCKRNTAEEENSANPNQDQNARRRKKKERRPRGTMQAINNERKASKVLGIVFFVFLIMWCPFFITNILSVLCEKSCNQKLMEKLLNVFVWIGYVCSGINPLVYTLFNKIYRRAFSNYLRCNYKVEKKPPVRQIPRVAATALSGRELNVNIYRHTNEPVIEKASDNEPGIEMQVENLELPVNPSSVVSERISSV
B2: Vang-like protein 1 (Homo sapiens), Q8TAA9 (parent)
chain: MDTESTYSGYSYYSSHSKKSHRQGERTRERHKSPRNKDGRGSEKSVTIQPPTGEPLLGNDSTRTEEVQDDNWGETTTAITGTSEHSISQEDIARISKDMEDSVGLDCKRYLGLTVASFLGLLVFLTPIAFILLPPILWRDELEPCGTICEGLFISMAFKLLILLIGTWALFFRKRRADMPRVFVFRALLLVLIFLFVVSYWLFYGVRILDSRDRNYQGIVQYAVSLVDALLFIHYLAIVLLELRQLQPMFTLQVVRSTDGESRFYSLGHLSIQRAALVVLENYYKDFTIYNPNLLTASKFRAAKHMAGLKVYNVDGPSNNATGQSRAMIAAAARRRDSSHNELYYEEAEHERRVKKRKARLVVAVEEAFIHIQRLQAEEQQKAPGEVMDPREAAQAIFPSMARALQKYLRITRQQNYHSMESILQHLAFCITNGMTPKAFLERYLSAGPTLQYDKDRWLSTQWRLVSDEAVTNGLRDGIVFVLKCLDFSLVVNVKKIPFIILSEEFIDPKSHKFVLRLQSETSV
B3: Plakophilin-4 (Homo sapiens), Q99569 (parent)
chain: MPAPEQASLVEEGQPQTRQEAASTGPGMEPETTATTILASVKEQELQFQRLTRELEVERQIVASQLERCRLGAESPSIASTSSTEKSFPWRSTDVPNTGVSKPRVSDAVQPNNYLIRTEPEQGTLYSPEQTSLHESEGSLGNSRSSTQMNSYSDSGYQEAGSFHNSQNVSKADNRQQHSFIGSTNNHVVRNSRAEGQTLVQPSVANRAMRRVSSVPSRAQSPSYVISTGVSPSRGSLRTSLGSGFGSPSVTDPRPLNPSAYSSTTLPAARAASPYSQRPASPTAIRRIGSVTSRQTSNPNGPTPQYQTTARVGSPLTLTDAQTRVASPSQGQVGSSSPKRSGMTAVPQHLGPSLQRTVHDMEQFGQQQYDIYERMVPPRPDSLTGLRSSYASQHSQLGQDLRSAVSPDLHITPIYEGRTYYSPVYRSPNHGTVELQGSQTALYRTGSVGIGNLQRTSSQRSTLTYQRNNYALNTTATYAEPYRPIQYRVQECNYNRLQHAVPADDGTTRSPSIDSIQKDPREFAWRDPELPEVIHMLQHQFPSVQANAAAYLQHLCFGDNKVKMEVCRLGGIKHLVDLLDHRVLEVQKNACGALRNLVFGKSTDENKIAMKNVGGIPALLRLLRKSIDAEVRELVTGVLWNLSSCDAVKMTIIRDALSTLTNTVIVPHSGWNNSSFDDDHKIKFQTSLVLRNTTGCLRNLSSAGEEARKQMRSCEGLVDSLLYVIHTCVNTSDYDSKTVENCVCTLRNLSYRLELEVPQARLLGLNELDDLLGKESPSKDSEPSCWGKKKKKKKRTPQEDQWDGVGPIPGLSKSPKGVEMLWHPSVVKPYLTLLAESSNPATLEGSAGSLQNLSAGNWKFAAYIRAAVRKEKGLPILVELLRMDNDRVVSSVATALRNMALDVRNKELIGKYAMRDLVNRLPGGNGPSVLSDETMAAICCALHEVTSKNMENAKALADSGGIEKLVNITKGRGDRSSLKVVKAAAQVLNTLWQYRDLRSIYKKDGWNQNHFITPVSTLERDRFKSHPSLSTTNQQMSPIIQSVGSTSSSPALLGIRDPRSEYDRTQPPMQYYNSQGDATHKGLYPGSSKPSPIYISSYSSPAREQNRRLQHQQLYYSQDDSNRKNFDAYRLYLQSPHSYEDPYFDDRVHFPASTDYSTQYGLKSTTNYVDFYSTKRPSYRAEQYPGSPDSWV
B4: Inward rectifier potassium channel 4 (Homo sapiens), P48050 (parent)
chain: MHGHSRNGQAHVPRRKRRNRFVKKNGQCNVYFANLSNKSQRYMADIFTTCVDTRWRYMLMIFSAAFLVSWLFFGLLFWCIAFFHGDLEASPGVPAAGGPAAGGGGAAPVAPKPCIMHVNGFLGAFLFSVETQTTIGYGFRCVTEECPLAVIAVVVQSIVGCVIDSFMIGTIMAKMARPKKRAQTLLFSHHAVISVRDGKLCLMWRVGNLRKSHIVEAHVRAQLIKPYMTQEGEYLPLDQRDLNVGYDIGLDRIFLVSPIIIVHEIDEDSPLYGMGKEELESEDFEIVVILEGMVEATAMTTQARSSYLASEILWGHRFEPVVFEEKSHYKVDYSRFHKTYEVAGTPCCSARELQESKITVLPAPPPPPSAFCYENELALMSQEEEEMEEEAAAAAAVAAGLGLEAGSKEEAGIIRMLEFGSHLDLERMQASLPLDNISYRRESAI

Variants of: B1
Details: with dlg1_human DLG1, Q12959
Target sequence in this assay (Q12959 whole entry, looked up): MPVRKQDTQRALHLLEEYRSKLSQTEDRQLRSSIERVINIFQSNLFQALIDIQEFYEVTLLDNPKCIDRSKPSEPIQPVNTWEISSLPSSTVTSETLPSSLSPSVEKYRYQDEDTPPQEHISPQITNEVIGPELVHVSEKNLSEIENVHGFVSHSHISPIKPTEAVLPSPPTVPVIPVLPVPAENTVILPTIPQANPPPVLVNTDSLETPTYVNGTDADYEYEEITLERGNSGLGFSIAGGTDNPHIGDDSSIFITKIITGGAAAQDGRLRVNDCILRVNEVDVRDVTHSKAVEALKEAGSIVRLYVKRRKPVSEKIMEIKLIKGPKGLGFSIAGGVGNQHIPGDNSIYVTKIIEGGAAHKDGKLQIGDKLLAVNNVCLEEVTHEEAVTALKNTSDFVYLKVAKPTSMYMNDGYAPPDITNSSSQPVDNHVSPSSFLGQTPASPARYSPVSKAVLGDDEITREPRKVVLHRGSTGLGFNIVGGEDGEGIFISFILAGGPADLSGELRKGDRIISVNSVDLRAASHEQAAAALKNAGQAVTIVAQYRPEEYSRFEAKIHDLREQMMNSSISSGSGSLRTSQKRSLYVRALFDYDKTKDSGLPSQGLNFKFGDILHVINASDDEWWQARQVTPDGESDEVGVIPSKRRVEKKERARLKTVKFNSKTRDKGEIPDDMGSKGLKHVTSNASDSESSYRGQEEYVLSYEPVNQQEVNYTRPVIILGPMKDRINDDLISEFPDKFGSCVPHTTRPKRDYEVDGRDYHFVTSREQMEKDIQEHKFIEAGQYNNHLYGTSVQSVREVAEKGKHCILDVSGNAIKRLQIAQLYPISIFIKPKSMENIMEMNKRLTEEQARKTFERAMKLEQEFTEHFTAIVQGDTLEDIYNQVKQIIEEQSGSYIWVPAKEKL

effect of a mutation on the interaction | Variant
with no effect | MVNLRNAVHSFLVHLIGLLVWQSDISVSPVAAIVTDIFNTSDGGRFKFPDGVQNWPALSIVIIIIMTIGGNILVIMAVSMEKKLHNATNYFLMSLAIADMLVGLLVMPLSLLAILYDYVWPLPRYLCPVWISLDVLFSTASIMHLCAISLDRYVAIRNPIEHSRFNSRTKAIMKIAIVWAISIGVSVPIPVIGLRDEEKVFVNNTTCVLNDPNFVLIGSFVAFFIPLTIMVITYCLTIYVLRRQALMLLHGHTEEPPGLSLDFLKCCKRNTAEEENSANPNQDQNARRRKKKERRPRGTMQAINNERKASKVLGIVFFVFLIMWCPFFITNILSVLCEKSCNQKLMEKLLNVFVWIGYVCSGINPLVYTLFNKIYRRAFSNYLRCNYKVEKKPPVRQIPRVAATALSGRELNVNIYRHTNEPVIEKASDNEPGIEMQVENLELPVNPSSVVSERISEV [S457E]

Variants of: B2
Details: with dlg1_human DLG1, Q12959
Target sequence in this assay (Q12959 whole entry, looked up): as the sequence (Q12959 whole entry, looked up) above

effect of a mutation on the interaction | Variant
increasing interaction strength | MDTESTYSGYSYYSSHSKKSHRQGERTRERHKSPRNKDGRGSEKSVTIQPPTGEPLLGNDSTRTEEVQDDNWGETTTAITGTSEHSISQEDIARISKDMEDSVGLDCKRYLGLTVASFLGLLVFLTPIAFILLPPILWRDELEPCGTICEGLFISMAFKLLILLIGTWALFFRKRRADMPRVFVFRALLLVLIFLFVVSYWLFYGVRILDSRDRNYQGIVQYAVSLVDALLFIHYLAIVLLELRQLQPMFTLQVVRSTDGESRFYSLGHLSIQRAALVVLENYYKDFTIYNPNLLTASKFRAAKHMAGLKVYNVDGPSNNATGQSRAMIAAAARRRDSSHNELYYEEAEHERRVKKRKARLVVAVEEAFIHIQRLQAEEQQKAPGEVMDPREAAQAIFPSMARALQKYLRITRQQNYHSMESILQHLAFCITNGMTPKAFLERYLSAGPTLQYDKDRWLSTQWRLVSDEAVTNGLRDGIVFVLKCLDFSLVVNVKKIPFIILSEEFIDPKSHKFVLRLQSETEV [S523E]

Variants of: B3
Details: with dlg1_human DLG1, Q12959
Target sequence in this assay (Q12959 whole entry, looked up): as the sequence (Q12959 whole entry, looked up) above

effect of a mutation on the interaction | Variant
disrupting interaction strength | S1190E

Variants of: B4
Details: with scrib_human SCRIB

effect of a mutation on the interaction | Variant
disrupting interaction strength | MHGHSRNGQAHVPRRKRRNRFVKKNGQCNVYFANLSNKSQRYMADIFTTCVDTRWRYMLMIFSAAFLVSWLFFGLLFWCIAFFHGDLEASPGVPAAGGPAAGGGGAAPVAPKPCIMHVNGFLGAFLFSVETQTTIGYGFRCVTEECPLAVIAVVVQSIVGCVIDSFMIGTIMAKMARPKKRAQTLLFSHHAVISVRDGKLCLMWRVGNLRKSHIVEAHVRAQLIKPYMTQEGEYLPLDQRDLNVGYDIGLDRIFLVSPIIIVHEIDEDSPLYGMGKEELESEDFEIVVILEGMVEATAMTTQARSSYLASEILWGHRFEPVVFEEKSHYKVDYSRFHKTYEVAGTPCCSARELQESKITVLPAPPPPPSAFCYENELALMSQEEEEMEEEAAAAAAVAAGLGLEAGSKEEAGIIRMLEFGSHLDLERMQASLPLDNISYRREEAI [S443E]
